In publication PMC4422724:

Assays:
[1] = target: G146V mutant Dictyostelium actin (Dictyostelium); assay: co-sedimentation; critical concentration by pelleting assay: 0.5-3.0 μM actin polymerized in F-buffer (10 mM HEPES pH 7.4, 2 mM MgCl2, 100 mM KCl, 0.5 mM ATP, 0.5 mM DTT) for 3 hr at 21°C, ultracentrifuged, protein in pellets determined; monomer to filament
[2] = target: G146V mutant Dictyostelium actin (Dictyostelium); assay: pyrene fluorescence depolymerization assay; 2 μM Mg-actin (20% pyrene-labeled) polymerized overnight at 22°C with 100 mM KCl, 2 mM MgCl2, 0.5 mM ATP; depolymerization induced with 30 μM latrunculin A; double-exponential fit; filament to monomers
[3] = target: G146V mutant Dictyostelium actin (Dictyostelium); assay: pyrene fluorescence depolymerization assay; 2 μM Mg-actin (20% pyrene-labeled) polymerized for 12 min at 22°C with 100 mM KCl, 2 mM MgCl2, 0.5 mM ATP; depolymerization induced with 30 μM latrunculin A; double-exponential fit; filament to monomers

critical concentration [1]: 0.51 µM | τf (depolymerization, fast-depolymerization population) [2]: 27.4 min | τs (depolymerization, slow-depolymerization population) [2]: 98 min | τf (depolymerization, fast-depolymerization population) [3]: 20.1 min | τs (depolymerization, slow-depolymerization population) [3]: 169 min
Substance: G146V mutant Dictyostelium actin (natural protein)
